Assay results as given in patent US20250269046A1, “CELLULAR UPTAKE OF LARGE BIOMOLECULES ENABLED BY CELL-SURFACE-REACTIVE CELL-PENETRATING PEPTIDE ADDITIVES” (FORSCHUNGSVERBUND BERLIN E.V., priority 2021, published 2025).

Columns and labels:
[1] = biological target: endogenous mitochondrial receptor TOMM20 (in HeLa CCL-2 cells) (UniProt Q15388); assay: cell-based or functional assay
[2] = biological target: Lifeact-mVenus (GFP mutant, expressed in transfected HeLa CCL-2 cells); assay: confocal microscopy of live HeLa CCL-2 cells transfected with Lifeact-mVenus after delivery of 500 nM antibody with TNB-R10; colocalization of antibody and mVenus signals

Sequence of endogenous mitochondrial receptor TOMM20 (in HeLa CCL-2 cells) (Q15388 whole entry): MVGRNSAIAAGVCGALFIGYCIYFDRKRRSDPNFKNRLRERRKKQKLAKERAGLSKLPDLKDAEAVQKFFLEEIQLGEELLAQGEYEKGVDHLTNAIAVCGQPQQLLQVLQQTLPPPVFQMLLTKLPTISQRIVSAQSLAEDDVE

pearson correlation coefficient (PCC) of the colocalization of the delivered antibody with the mitochondrial marker MitoTracker Red CMXRos [1] | pearson correlation coefficient (PCC) of colocalization [2] | Substance
0.58 |  | Anti-Tom20/Tomm20, clone 2F8.1 (antibody)
 | 0.8 | Alexa Fluor 594 anti-GFP Antibody, Clone 1GFP63
